Laboratory results reported in paper PMC11705696.

B1: AjATG4 WT probe (dsDNA)
DNA 1: TTTACGGCGCCTGTTTACGTCATCAACC
DNA 2: GGTTGATGACGTAAACAGGCGCCGTAAA
B2: AjLC3 WT probe (dsDNA)
DNA 1: ATATCCTTTTGTCTGTTTTTCGGAAAG
DNA 2: CTTTCCGAAAAACAGACAAAAGGATAT
B3: AjATG4 Mut probe (dsDNA)
DNA 1: TTTACGGCGCGACAAAACGTCATCAACC
DNA 2: GGTTGATGACGTTTTGTCGCGCCGTAAA
B4: AjLC3 Mut probe (dsDNA)
DNA 1: ATATCCTTTTGTGACACCTTCGGAAAG
DNA 2: CTTTCCGAAGGTGTCACAAAAGGATAT

Biological target: AjFoxO (rAjFoxO) (Apostichopus japonicus, UniProt A0A2G8KG36 1-567)
Assay: EMSA

Binder | binding result
B1 | binds
B2 | binds
B3 | no binding
B4 | no binding
